27 molecules from patent US20230406935A1 (F STAR THERAPEUTICS, published 2023) can be followed below.

Changes are numbered by the printed parent chain.

To fix the notation:
B1: FS17-33-157AA/HELD1.3 (bispecific antibody)
chain 1: QVQLQESGPGLVRPSQTLSLTCTVSGSTFSGYGVNWVRQPPGRGLEWIGMIWGDGNTDYNSALKSRVTMLVDTSKNQFSLRLSSVTAADTAVYYCARERDYRLDYWGQGSLVTVSSASTKGPSVFPLAPSSKSTSGGTAALGCLVKDYFPEPVTVSWNSGALTSGVHTFPAVLQSSGLYSLSSVVTVPSSSLGTQTYICNVNHKPSNTKVDKKVEPKSCDKTHTCPPCPAPEAAGGPSVFLFPPKPKDTLMISRTPEVTCVVVDVSHEDPEVKFNWYVDGVEVHNAKTKPREEQYNSTYRVVSVLTVLHQDWLNGKEYKCKVSNKALPAPIEKTISKAKGQPREPQVYTLPPSRDEEGYWVSLTCLVKGFYPSDIAVEWESNGEPQYWAKTTPPVLDSDGSFFLYSKLTVSNWRWQLDDFSCSVMHEALHNHYTQKSLSLSPGK
chain 2: DIQMTQSPASLSASVGETVTITCRASGNIHNYLAWYQQKQGKSPQLLVYNAKTLADGVPSRFSGSGSGTQYSLKINSLQPEDFGSYYCQHFWSTPRTFGGGTKLEIKRTVAAPSVFIFPPSDEQLKSGTASVVCLLNNFYPREAKVQWKVDNALQSGNSQESVTEQDSKDSTYSLSSTLTLSKADYEKHKVYACEVTHQGLSSPVTKSFNRGEC
B2: FS17-33-166AA/HELD1.3 (bispecific antibody)
chain 1: B1 chain 1 with E357Y
chain 2: B1 chain 2
B3: FS17-33-161AA/HELD1.3 (bispecific antibody)
chain 1: B1 chain 1 with E357L
chain 2: B1 chain 2
B4: FS17-33-316AA/HELD1.3 (bispecific antibody)
chain 1: B1 chain 1 with E357S, D419A
chain 2: B1 chain 2
B5: FS17-33-266AA/HELD1.3 (bispecific antibody)
chain 1: B1 chain 1 with E357S, Q416R
chain 2: B1 chain 2
B6: FS17-33-239AA/HELD1.3 (bispecific antibody)
chain 1: B1 chain 1 with E357S, N412Q
chain 2: B1 chain 2
B7: FS17-33-277AA/HELD1.3 (bispecific antibody)
chain 1: B1 chain 1 with E357S, Q416S
chain 2: B1 chain 2
B8: FS17-33-271AA/HELD1.3 (bispecific antibody)
chain 1: B1 chain 1 with E357S, Q416H
chain 2: B1 chain 2
B9: FS17-33-159AA/HELD1.3 (bispecific antibody)
chain 1: B1 chain 1 with E357H
chain 2: B1 chain 2
B10: FS17-33-163AA/HELD1.3 (bispecific antibody)
chain 1: B1 chain 1 with E357F
chain 2: B1 chain 2
B11: FS17-33-241AA/HELD1.3 (bispecific antibody)
chain 1: B1 chain 1 with E357S, N412H
chain 2: B1 chain 2
B12: FS17-33-235AA/HELD1.3 (bispecific antibody)
chain 1: B1 chain 1 with E357S, N412A
chain 2: B1 chain 2
B13: FS17-33-460AA/HELD1.3 (bispecific antibody)
chain 1: QVQLQESGPGLVRPSQTLSLTCTVSGSTFSGYGVNWVRQPPGRGLEWIGMIWGDGNTDYNSALKSRVTMLVDTSKNQFSLRLSSVTAADTAVYYCARERDYRLDYWGQGSLVTVSSASTKGPSVFPLAPSSKSTSGGTAALGCLVKDYFPEPVTVSWNSGALTSGVHTFPAVLQSSGLYSLSSVVTVPSSSLGTQTYICNVNHKPSNTKVDKKVEPKSCDKTHTCPPCPAPEAAGGPSVFLFPPKPKDTLMISRTPEVTCVVVDVSHEDPEVKFNWYVDGVEVHNAKTKPREEQYNSTYRVVSVLTVLHQDWLNGKEYKCKVSNKALPAPIEKTISKAKGQPREPQVYTLPPSRDESGYWVSLTCLVKGFYPSDIAVEWESNGEPQYWAKTTPPVLDSDGSFFLYSKLTVSNWRWHLDDVFSCSVMHEALHNHYTQKSLSLSPGK
chain 2: B1 chain 2
B14: FS17-33-456AA/HELD1.3 (bispecific antibody)
chain 1: B13 chain 1 with N412A, H416Q
chain 2: B1 chain 2
B15: FS17-33-454AA/HELD1.3 (bispecific antibody)
chain 1: B13 chain 1 with S357F, H416Q
chain 2: B1 chain 2
B16: FS17-33-462AA/HELD1.3 (bispecific antibody)
chain 1: B13 chain 1 with H416Q, D419A
chain 2: B1 chain 2
B17: FS17-33-461AA/HELD1.3 (bispecific antibody)
chain 1: B13 chain 1 with H416S
chain 2: B1 chain 2
B18: FS17-33-453AA/HELD1.3 (bispecific antibody)
chain 1: B13 chain 1 with S357L, H416Q
chain 2: B1 chain 2
B19: FS17-33-459AA/HELD1.3 (bispecific antibody)
chain 1: B13 chain 1 with H416R
chain 2: B1 chain 2
B20: FS17-33-455AA/HELD1.3 (bispecific antibody)
chain 1: B13 chain 1 with S357Y, H416Q
chain 2: B1 chain 2
B21: FS17-33-458AA/HELD1.3 (bispecific antibody)
chain 1: B13 chain 1 with N412H, H416Q
chain 2: B1 chain 2
B22: FS17-33-457AA/HELD1.3 (bispecific antibody)
chain 1: B13 chain 1 with N412Q, H416Q
chain 2: B1 chain 2
B23: Fcab FS17-33-288 with LALA mutation (designed binder)
chain: TCPPCPAPEAAGGPSVFLFPPKPKDTLMISRTPEVTCVVVDVSHEDPEVKFNWYVDGVEVHNAKTKPREEQYNSTYRVVSVLTVLHQDWLNGKEYKCKVSNKALPAPIEKTISKAKGQPREPQVYTLPPSRDESGYWVSLTCLVKGFYPSDIVVEWESNGEPQYWAKTTPPVLDSDGSFFLYSKLTVSNWRWQIDDFSCSVMHEALHNHYTQKSLSLSPGK
B24: Fcab FS17-33-296 with LALA mutation (designed binder)
chain: B23 chain with I194V
B25: Fcab FS17-33-334 with LALA mutation (designed binder)
chain: B23 chain with V153A, I194L
B26: Fcab FS17-33-289 with LALA mutation (designed binder)
chain: B23 chain with I194L
B27: anti-PD-L1 mAb YW243.55.S1 (antibody, V domains shown)
VH: not shown
VL: DIQMTQSPSSLSASVGDRVTITCRASQDVSTAVAWYQQKPGKAPKLLIYSASFLYSGVPSRFSGSGSGTDFTLTISSLQPEDFATYYCQQYLFTPPTFGQGTKVEIKR

T1 sequence (Q9NZQ7 19-290 limits assumed): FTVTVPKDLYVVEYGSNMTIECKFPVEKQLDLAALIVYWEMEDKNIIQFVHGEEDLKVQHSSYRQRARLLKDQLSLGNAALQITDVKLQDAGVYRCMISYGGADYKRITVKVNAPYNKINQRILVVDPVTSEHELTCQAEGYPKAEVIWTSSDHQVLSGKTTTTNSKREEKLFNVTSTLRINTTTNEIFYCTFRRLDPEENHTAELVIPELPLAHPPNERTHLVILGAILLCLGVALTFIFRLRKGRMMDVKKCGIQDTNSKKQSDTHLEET

The first assay addresses T1, Human PD-L1 expressed on cells (human, UniProt Q9NZQ7 19-290). Description: cell-based or functional assay.
In the case of B1, the “DO11.10 EC50” value was 481 pM.
Turning to B2, the “DO11.10 EC50” value came to 238 pM.
Still for that read-out and setting: in the case of B3 it was 453 pM; in that of B4, 563 pM; in that of B5, 434 pM.
For B6, the “DO11.10 EC50” value stood at 588 pM.
On the same count and under the same terms, the result for B7 reads 319 pM; that for B8, 254 pM.
Same read-out and setting: the result for B9 reads 263 pM; that for B10, 370 pM; that for B11, 304 pM.
For the molecule B12, the “DO11.10 EC50” value was found to be 561 pM.

In another assay the target is T2, Monomeric His-tagged human PD-L1 (Acro biosystems PD1-H5229) (human, UniProt Q9NZQ7 19-238).
T2 construct: also called hPD-L1-his; PD-L1-his
T2 sequence (Q9NZQ7 19-238 limits assumed): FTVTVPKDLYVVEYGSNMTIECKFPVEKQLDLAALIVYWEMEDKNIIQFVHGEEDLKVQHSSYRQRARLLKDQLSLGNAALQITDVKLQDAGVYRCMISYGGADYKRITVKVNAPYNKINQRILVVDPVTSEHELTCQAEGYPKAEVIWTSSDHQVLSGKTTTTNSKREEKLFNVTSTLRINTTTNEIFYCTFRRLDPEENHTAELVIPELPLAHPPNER
Nature of the assay: off-rate, binding to hPD-L1, mock mAb^2; instrument not stated.
As for B13, the koff (as a rule, a measure of how fast the partners let go of each other) turned out to be 0.000202 s⁻¹.
On the same count and under the same terms, in the case of B14 it was 0.000619 s⁻¹.
The same measure, in the same setting: the result for B15 reads 0.000269 s⁻¹.
Regarding B16, the koff came to 0.000899 s⁻¹. Against the preceding molecule, the koff is about 3.3-fold higher.
The same measure, in the same setting: the result for B17 reads 0.000359 s⁻¹.
On to B18, for which the koff amounted to 0.000303 s⁻¹.
Same read-out and setting: in the case of B19 it was 0.00038 s⁻¹; in that of B20, 0.000343 s⁻¹; in that of B21, 0.000456 s⁻¹.
B22 yielded a koff of 0.000589 s⁻¹.

The next assay has as its target T1, Human PD-L1 expressed on cells. Nature of the assay: cell-based or functional assay. The source holds these as a separate data set.
In the case of B23, the “DO11.10 T cell activation assay EC50” value was determined as 137 pM.
For B24, the “DO11.10 T cell activation assay EC50” value was 166 pM.
Still for that read-out and setting: in the case of B25 it was 381 pM; in that of B26, 228 pM.
As to B27, the “DO11.10 T cell activation assay EC50” value was determined as 257 pM.

In the next assay the target is T2, Monomeric His-tagged human PD-L1 (Acro …). Nature of the assay: off-rate on PD-L1, mock mAb^2; instrument not given.
On to B1, for which the koff was determined as 0.000559 s⁻¹.
Consider B2, for which the koff came to 0.000523 s⁻¹.
For B3, the koff stood at 0.000578 s⁻¹.
In turn, B4 yielded a koff of 0.000566 s⁻¹. This koff and that of the molecule before are within 1.5-fold of each other.
B5 yielded a koff of 0.000377 s⁻¹.
Still for that read-out and setting: the result for B6 reads 0.000693 s⁻¹; that for B7, 0.000415 s⁻¹.
Turning to B8, the koff is 0.000518 s⁻¹. The koff values of the last two molecules are within 1.5-fold of each other.
The same measure, in the same setting: in the case of B9 it was 0.000427 s⁻¹.
Regarding B10, the koff turned out to be 0.000372 s⁻¹. The koff values of the last two molecules are within 1.5-fold of each other.
B11 displayed a koff of 0.000592 s⁻¹.
Same read-out and setting: the result for B12 reads 0.000709 s⁻¹.
